Drawing on patent US20240150490A1, this text covers median signal level of CA IX-staining for 1 substance.

In test [1] the target is CA IX expressed by cells (C-33a_CA IX transfectants; hypoxic BT-20, JIMT-1, 8-MG-BA and 42-MG-BA cells) (human) (UniProt Q16790). The test is described as follows: flow cytometry, M75 1 ug/ml and Alexa 488 secondary antibody, hypoxic BT-20 cells.
Test [2] has the same target. The test can be described thus: flow cytometry, M75 1 ug/ml and Alexa 488 secondary antibody, hypoxic JIMT-1 cells. (In general: A flow cytometer gives signals particle by particle.)

For the substance mouse monoclonal antibody M75, the median signal level of CA IX-staining in test [1] was 108; in test [2], 86.8.
